Results reported in PMC10892425.

How the values were obtained:
[1] = test system: VV-GMCSF-Lact intact vaccinia virus particles (surface protein target not identified) (Vaccinia virus, LIVP strain (recombinant VV-GMCSF-Lact)); experiment: MST
[2] = test system: VV-GMCSF-Lact intact vaccinia virus particles (surface protein target not identified) (Vaccinia virus, LIVP strain (recombinant VV-GMCSF-Lact)); experiment: flow cytometry

Work on “GTAACCAGCCATCACCCTATTATCTCATTATCTCGTTTTCCCTATGCGGCATAGG [NV14t_56 (8NV37_14 variant 2_12-67)]” yielded a K half [1] of 1.49e+09 PFU/mL and a Kd [2] of 353 nM.
